Data as given in paper PMC12711061, “Far-infrared irradiation attenuates vessel contraction by activating SERCA2 through disruption of SERCA2 and PLN interaction” (PLOS One, 2025).

Target: sarcoendoplasmic reticulum Ca2+-ATPase 2 (SERCA2), endogenous in rat VSMCs (rat (endogenous in rat aortic VSMCs), UniProt P11507 1-1043)
Test: cell-based or functional assay

sarcoendoplasmic reticulum Ca2+-ATPase 2 (SERCA2), endogenous in rat VSMCs, sequence (P11507 whole entry): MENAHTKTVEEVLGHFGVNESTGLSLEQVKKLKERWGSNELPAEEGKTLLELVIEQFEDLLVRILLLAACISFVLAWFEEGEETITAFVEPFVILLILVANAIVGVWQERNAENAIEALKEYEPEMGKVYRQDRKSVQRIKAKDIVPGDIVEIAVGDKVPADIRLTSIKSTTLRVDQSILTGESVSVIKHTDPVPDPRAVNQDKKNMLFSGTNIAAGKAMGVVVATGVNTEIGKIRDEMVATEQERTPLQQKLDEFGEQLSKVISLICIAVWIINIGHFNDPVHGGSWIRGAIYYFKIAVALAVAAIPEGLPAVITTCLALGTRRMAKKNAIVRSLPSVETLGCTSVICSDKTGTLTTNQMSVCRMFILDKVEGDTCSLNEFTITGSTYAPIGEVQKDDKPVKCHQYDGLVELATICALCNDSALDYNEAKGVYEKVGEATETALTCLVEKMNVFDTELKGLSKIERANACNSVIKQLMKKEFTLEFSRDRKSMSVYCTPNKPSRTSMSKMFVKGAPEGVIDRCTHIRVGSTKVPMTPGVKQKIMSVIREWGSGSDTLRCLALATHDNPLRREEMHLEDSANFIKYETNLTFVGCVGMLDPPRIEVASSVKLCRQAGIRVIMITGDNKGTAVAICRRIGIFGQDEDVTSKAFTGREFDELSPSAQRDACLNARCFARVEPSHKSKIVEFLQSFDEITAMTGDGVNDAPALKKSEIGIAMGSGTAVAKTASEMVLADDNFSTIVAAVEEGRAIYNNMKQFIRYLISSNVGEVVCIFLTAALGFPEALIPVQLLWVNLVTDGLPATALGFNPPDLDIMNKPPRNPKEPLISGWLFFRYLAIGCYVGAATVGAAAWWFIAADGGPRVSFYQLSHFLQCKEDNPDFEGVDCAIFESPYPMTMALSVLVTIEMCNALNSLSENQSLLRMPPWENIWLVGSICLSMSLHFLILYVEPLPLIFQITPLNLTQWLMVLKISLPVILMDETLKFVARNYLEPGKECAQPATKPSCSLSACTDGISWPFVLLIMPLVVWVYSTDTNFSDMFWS

Ca2+-dependent SERCA activity in VSMC lysate (enzyme-coupled spectrophotometric assay), FIR irradiation for 30 min against the RT control: 4.5 fold
B1: phospholamban (PLN), endogenous in rat VSMCs (natural protein, rat (endogenous in rat aortic VSMCs), UniProt P61016 1-52, looked up)
chain: MEKVQYLTRSAIRRASTIEMPQQARQNLQNLFINFCLILICLLLICIIVMLL
